Assay results reported in the DeepSol protein solubility set.

Assay: soluble on expression in E. coli; label from the status in PepcDB or PDB records

Row | Sequence | soluble on expression in E. coli
1 | MDTGELHDLTVKGAVVTQLERCEVACQRLFQNLALLGLELQNSESITEGVCDSKAASDLGSSVELLENEERALRLCVDRFVLELRQVENLAKTLDGIREEEERILSLEQRSIEQAERCFYLWNDAREMLRGTRLTSIKEVLESAARYPRIPSWTPLPTSN | not soluble
2 | MLLAYSMKVVYHLFSGGKDSSLAAWILKKLGYEVKLITITFGVLDNWKFARETAEILGFDHEVIEMPIGILEKATEMCIKEGRAGNAIQYIHERALEYIASREEVKRISDGTRRDDRVPFLDLSKARSLEDRYNVAYIRPLLGLGYKTIRELVNEIFVVVEDESEKVQKGDYETELRELIRRKGHDPSQIFPKRHVQSRVVGLR | not soluble
3 | SNAMAALPDKEKLLRNFTRCANWEEKYLYIIELGQRLAELNPQDRNPQNTIHGCQSQVWIVMRRNANGIIELQGDSDAAIVKGLMAVVFILYHQMTAQDIVHFDVRPWFEKMALAQHLTPSRSQGLEAMIRAIRAKAATLS | soluble
4 | MSLWTIMIGSKNRAKVHALQEVVIRDKIIVRSEAVPSDVASQPFSDQETIQGAINRANHCLSFDGVDYGVGLEGGVVRSEYGLFLCNWGALVSQTGDQWVAGGARVPLPQEVAHELEGGKELGDIMESLTKNPDVRMTDGAIGYLTDGEISRKAMFQHVVHLLIGQARRDGHLLRTVTHEGHHHHHH | soluble
5 | MTDIDAIIIGAGVIGLATARELSMHGLSVIILESETEFGSATSSRNSEVIHAGLYYPAGSLKARLCVEGRQRLYDFCESHGVAHRHCGKLIVATSDDETPLLVALGAKGKANGCDDLELIDQRHALSLEPALACSSALLSPSTGIIDSHGYMLALLGEAQDHGAALALNAPFERAEAIGDGFRVHVGGKEPVSLTCRLLVNSAGLVAPMVAAMIEGLPSVAIPQARFAKGSYFSLTGKSPFSRLIYPAPHTHGLGVHLTLDLAGQARFGPDVEWVDTIDYAVDPRRMEGFGDAIRRYWPGLPEHTLAPAYSGIRPKISGPDEPAMDFRIDGPETHGFPGLVNLFGIESPGLTASLAIAGEIAARLEALEHHHHHH | not soluble
6 | MILKPENEKKLIIDVLKKFGVPEEDAKITADVFVDADLKGFTSHGIGRFPQYITALKLGNINPKPDIKIVKESPATAVIDGDLGLGQVVGKKAMELAIKKAKNVGVGVVATRNANHFGIAGYYSELAMNQDMIGITITNTEPAMAPFGGKEKILGTNPIAIAFKGNKYKFSLDMATASIARGKILEALRKKIKIPEGCAVDKDGKPTTDPAKALEGCILPFGGPKGYGLALAIEMLSAIGGAEVGTKVKGTANPEERCTKGDLFIAINPEFFMGKEEFKRKVDELLDEIKNSEPAEGFEILIPGEIEERNKMKRKDGFEIDKNLYNQLKEICNELGLNIEDYIE | soluble
7 | MFPFSPADVPTLSYFDEYRGRRVQCHFCFQEVDGSTLLNHFKDDLRVFRYPSNSCYGIAATGDALRAHLRRLHFYSRPPAVRGFDIEQRRIRSQLKFDEHEHDPDWDMEDVQQENRSKEAPVEAVNSQDATSPAEKVSKIKEDISTSSSRVDPMYSDEDSEDETSDADSSDDENRESEEEEDEY | not soluble
8 | TQLHATRQAIVEAGQAIKMDKNGVQKLPVLNIYNEQQKWQKHQLMVENLPLNQVLQELDRNYKGKIIFNDAALQHVRVNAVLPLDQTTESLKLLATVFPDLKIKQIMPFVVMVSLK | not soluble
9 | MGSDKIHHHHHHMLPALWVAKTGLSAQDTNLTVISNNLANVSTTGFKRDRAEFADLLYQIKRQPGAQSTQDSELPSGLQVGTGVRIVGTQKSFVAGSLQTTDNPLDMAVNGRGFFQILQPDGTVSYTRDGTFHLNSDGQIVTDNGYALEPAIVVPNDAQTFTVGQDGTVSITTAGNPAAQVIGNIQTADFINPAGLQAIGDNLFLETAASGAPQVGTPGLNGFGTTLQQTLENSNVSTVEELVNMITTQRAYEMNSKVISTADQMLSFVTQQL | not soluble
10 | MIFAKGHGTQNDFVLLPDVDAELVLTAARVAALCDRRKGLGADGVLRVTTAGAAQAVGVLDSLPEGVRVTDWYMDYRNADGSAAQMCGNGVRVFAHYLRASGLEVRDEFVVGSLAGPRPVTCHHVEAAYADVSVDMGKANRLGAGEAVVGGRRFHGLAVDVGNPHLACVDSQLTVDGLAALDVGAPVSFDGAQFPDGVNVEVLTAPVDGAVWMRVHERGVGETRSCGTGTVAAAVAALAAVGSPTGTLTVHVPGGEVVVTVTDATSFLRGPSVLVARGDLADDWWNAMG | not soluble
11 | MITLYGFGTGFGLPEISPFVTKTEVQLKMAGLPYRKERAMPPASPKGQLPFIDDGGEAVADSTFIRAHIERRYGFDFDAGLSLQERAQAWAFERMIEHHVYWALVGARWVDPINFAKGPSHFFDGAPEHNREKLREDAQFRVAENYLLSGLGRHAPDDDVDLAVRSLFALSVQLGDKAYLMGNKPCGVDATAFGALAGILTPFFESGLRQRAEGFPNLTAYVDRMMDNYYPEFAWTPLRQAALEHHHHHH | not soluble
12 | MGSDKIHHHHHHMAQVDLLNVKGEKVGTLEISDFVFNIDPNYDVMWRYVDMQLSNRRAGTASTKTRGEVSGGGRKPWPQKHTGRARHGSIRSPIWRHGGVVHGPKPRDWSKKLNKKMKKLALRSALSVKYRENKLLVLDDLKLERPKTKSLKEILQNLQLSDKKTLIVLPWKEEGYMNVKLSGRNLPDVKVIIADNPNNSKNGEKAVRIDGLNVFDMLKYDYLVLTRDMVSKIEEVLGNEAGKALTA | not soluble
13 | GSHMQTPKETLSERLSALQDKIIDHYENDSKDIDSQIQYWQLIRWENAIFFAAREHGIQTLNHQVVPAYNISKSKAHKAIELQMALQGLAQSAYKTEDWTLQDTCEELWNTEPTHCFKKGGQTVQVYFDGNKDNCMTYVAWDSVYYMTDAGTWDKTATCVSHRGLYYVKEGYNTFYIEFKSECEKYGNTGTWEVHFGNNVIDCNDSMCSTSDDTVSAT | soluble
14 | MGSDKIHHHHHHMLSTTNLTMQFGAKALFENVSVEFGNGNRYGLIGANGSGKTTLMKILGGDLEPSSGHVSLSSGERLGKLRQDQFAFEECTVLDTVIMGHAELWRVKQERDRLYALPEMTDEEGMAVAHVEVEFAELGGYAAESRAGELLSGVGIPLEQHSGLMSAVSPGWKLRVLLAQALFADPDILLLDEPTNNLDIHTIQWLEELISNLNSTVIIISHDRHFLNSVCTHMADLDYGELRIYPGNYDEYMQASTLVRDQLLADNDKKKEKMAELQGFVSRFSANASKAKQATSRARQLEKIQLAEVKPSSRQNPYLVFNQERKLYRNALDGKDLSKSFGDLRLFHKMRLHVEAGERIAIIGSNGLGKTTLLRCLMGELTTDAGEIKWAENARIGYFAQDYAPEFAEDMTLFDWMCQWRGERDDDQVIRGVLGRLLFGQDQVNRSVKVLSGGEKGRMLFGKLTLQKPNVLILDEPTNHLDMESIESLNSALEKYDGTLLFVSHDRAFVSSLATRIIEFTPRGIQDFKGTYEDYLRSQGMG | not soluble
15 | MGSDKIHHHHHHMRALLSGYYGKGNGGDEALLATLLQMLPSHVTPVVLSGNPEETSDRYGVESHNRMSLTSVLPALRSCDAFIWGGGSLIQDVTSSISPFYYGGLMALAQKMGLKTVAWAQGIGPLVRPQTRWLAQHNFSGCTTVSVRDRVSAALLADWQIPYILAPDPVWALQAKPFPELANLPTPRIAVTLRNHPQLTAPRLANLTQALVSLQKSTQAFILLLPFQKSEDLAIAQAIQPQLKDVSEIVCIEDPQILKGVFRGVEMAIGMRLHSLIMAASEGCRCFALSYDPKINRLMEDLAIPGWDLANLPDNANVISKTWIDFYTNAQPLASEKITTLVEGAFMHRELLRKALGRIN | not soluble
16 | MSLTARRFLNELADLYGVATSYTDYKGAHIEVSDDTLVKILRALGVNLDTSNLPNDDAIQRQIALFHDREFTRPLPPSVVAVEGDELVFPVHVHDGSPADVHIELEDGTQRDVSQVENWTAPREIDGIRWGEASFKIPGDLPLGWHKLHLKSNERSAECGLIITPARLSTADKYLDSPRSGVMAQIYSVRSTLSWGMGDFNDLGNLASVVAQDGADFLLINPMHAAEPLPPTEDSPYLPTTRRFINPIYIRVEDIPEFNQLEIDLRDDIAEMAAEFRERNLTSDIIERNDVYAAKLQVLRAIFEMPRSSEREANFVSFVQREGQGLIDFATWCADRETAQSESVHGTEPDRDELTMFYMWLQWLCDEQLAAAQKRAVDAGMSIGIMADLAVGVHPGGADAQNLSHVLAPDASVGAPPDGYNQQGQDWSQPPWHPVRLAEEGYIPWRNLLRTVLRHSGGIRVDHVLGLFRLFVMPRMQSPATGTYIRFDHNALVGILALEAELAGAVVIGEDLGTFEPWVQDALAQRGIMGTSILWFEHSPSQPGPRRQEEYRPLALTTVTTHDLPPTAGYLEGEHIALRERLGVLNTDPAAELAEDLQWQAEILDVAASANALPAREYVGLERDQRGELAELLEGLHTFVAKTPSALTCVCLVDMVGEKRAQNQPGTTRDMYPNWCIPLCDSEGNSVLIESLRENELYHRVAKASKRDEGHHHHHH | soluble
17 | MSLHAAAVGPSVLPDLREQVEQIIAEARRQGASACEVAVSLEQGLSTSVRQGEVETVEFNRDQGFGITLYAGQRKGSASTSATGEAAIRETVAAALAIARHTSEDECAGLADAALMARELPELDLYHPWSLSPEQAVERALACEAAAFAADKRVTKADGTTLNTHQGCRVYGNSHGFIGGYASTRHSLSCVMIAEGEGQMQRDYWYDVNRRGEALASAESIGRRAAERAASRLGARPVQTAEVPVLFAPEIAVGLFGHFLGAISGGSLYRKSSFLEGALGQRLFPEWLSIDERPHLVGALGSASFDSDGLATYAKPFVENGELVSYVLGTYSGRKLGLPSTANAGGVHNLFVSHGDEDQAALIRRMERGLLVTELMGQGVNLVTGDYSRGAAGYWVENGEIQFPVQEVTIAANLRDLFRRIVAVGKDIERRGNLHTGSVLVESMMVAGR | soluble
18 | NTIEKEERIKIAVLTEQNQKNRIADYQDREEIYERQRRKMHDYKNQLSTIQTLIKNGHTDEALSFTQKLTESIAVEMSAINTNHPVVNAILNQKYRSMQEKHIAVILKVGDLQEICLEEEEIVILLSNLLDNAIRESEKVLKNTGKAVIHLKLECEDHKLIFAVRNPVTEKVEIENDTIKSKRGDHHGIGLLNVKAVVDKYGGDMVLSCDENEFKAVVIL | not soluble
19 | MKLTPNFYRDRVCLNVLAGSKDNAREIYAAAEGHVLVGVLSKNYPDVASAVADMREYAALIDNALSVGLGAGDPNQSAMVSEISRQVQPQHVNQVFTGVGTSRALLGQNETVVNGLVSPTGTPGLVKISTGPLSSRAPDGIVPIETAIALLKDMGGSSVKYFPMGGLTCRDEYKAVAEPAPAMISGWNRRAVSIWKTSPRFCTSPLMQV | not soluble
20 | MNDDALPVHSTDLLDFDEDFIKIDAAICEYDSVGHAPQRKGESAFQWASVETACLALLKKAKDVRVAIWYLRACIARRGLSGLADGVRLLAELMSAPVEELHPRALPDESPGETLLIHLGWLAGPQFLHQLGSSRFEDRDATLNDLIGGRAAAIVEDRDYCVRANTLVHDIKDSLSRIRESVAVVEQELNLSRSLDLLSVAASRLARTDAGRAESESVAGEKPAHAEAGFSPAPDPQQPAAGPGGALRSRQEVGVALERIVEYFRLHEPSHPAPIFLSRIQRMLGAGFEEVMAELYPEAASLVAQLNRPQSSIK | not soluble
21 | MGSDKIHHHHHHMNGQPLIQVSDFEGPLDLLLHLIKTNEMDIYDIRISTITSQYLTYLHQMQLVRLDVAGEYFVMAANLMAIKAKLLLPKPQSVVPVDEDEPADPREELVNQLLEYQRYKQAAQALKQRALERQQHFTRPAMAVPESVELTVAPGIKPVDLQTALVRLMQRATLAKPVTQSVHQEHFTIKRQMTTILQRLKGTTAPVAFEQLLVTHPVMEEVVTTFLAVLELARQRQVQLQQAGRLAPLQVNFLQMEGRFSTDVTSSTD | not soluble
